# Data as given in PMC8051872.
# Molecular target: wild-type full-length human ADAMTS13 (human) (UniProt Q76LX8)
binder,measurement,value
wild-type full-length human ADAMTS13 (enzyme) AAGGILHLELLVAVGPDVFQAHQEDTERYVLTNLNIGAELLRDPSLGAQFRVHLVKMVILTEPEGAPNITANLTSSLLSVCGWSQTINPEDDTDPGHADLVLYITRFDLELPDGNRQVRGVTQLGGACSPTWSCLITEDTGFDLGVTIAHEIGHSFGLEHDGAPGSGCGPSGHVMASDGAAPRAGLAWSPCSRRQLLSLLSAGRARCVWDPPRPQPGSAGHPPDAQPGLYYSANEQCRVAFGPKAVACTFAREHLDMCQALSCHTDPLDQSSCSRLLVPLLDGTECGVEKWCSKGRCRSLVELTPIAAVHGRWSSWGPRSPCSRSCGGGVVTRRRQCNNPRPAFGGRACVGADLQAEMCNTQACEKTQLEFMSQQCARTDGQPLRSSPGGASFYHWGAAVPHSQGDALCRHMCRAIGESFIMKRGDSFLDGTRCMPSGPREDGTLSLCVSGSCRTFGCDGRMDSQQVWDRCQVCGGDNSTCSPRKGSFTAGRAREYVTFLTVTPNLTSVYIANHRPLFTHLAVRIGGRYVVAGKMSISPNTTYPSLLEDGRVEYRVALTEDRLPRLEEIRIWGPLQEDADIQVYRRYGEEYGNLTRPDITFTYFQPKPRQAWVWAAVRGPCSVSCGAGLRWVNYSCLDQARKELVETVQCQGSQQPPAWPEACVLEPCPPYWAVGDFGPCSASCGGGLRERPVRCVEAQGSLLKTLPPARCRAGAQQPAVALETCNPQPCPARWEVSEPSSCTSAGGAGLALENETCVPGADGLEAPVTEGPGSVDEKLPAPEPCVGMSCPPGWGHLDATSAGEKAPSPWGSIRTGAQAAHVWTPAAGSCSVSCGRGLMELRFLCMDSALRVPVQEELCGLASKPGSRREVCQAVPCPARWQYKLAACSVSCGRGVVRRILYCARAHGEDDGEEILLDTQCQGLPRPEPQEACSLEPCPPRWKVMSLGPCSASCGLGTARRSVACVQLDQGQDVEVDEAACAALVRPEASVPCLIADCTYRWHVGTWMECSVSCGDGIQRRRDTCLGPQAQAPVPADFCQHLPKPVTVRGCWAGPCVGQGTPSLVPHEEAAAPGRTTATPAGASLEWSQARGLLFSPAPQPRRLLPGPQENSVQSSACGRQHLEPTGTIDMRGPGQADCAVAIGRPLGEVVTLRVLESSLNCSAGDMLLLWGRLTWRKMCRKLLDMTFSSKTNTLVVRQRCGRPGGGVLLRYGSQLAPETFYRECDMQLFGPWGEIVSPSLSPATSNAGGCRLFINVAPHARIAIHALATNMGAGTEGANASYILIRDTHSLRTTAFHGQQVLYWESESSQAEMEFSEGFLKAQASLRGQYWTLQSWVPEMQDPQSWKGKEGT,percent enhancement by antibody 17G2 of catalytic efficiency (kcat/Km) of VWF96 proteolysis; intramolecular Spacer-CUB interaction within full-length ADAMTS13,188%
